Results taken from IntAct's records for PubMed 12473693.

B1: Vinculin (Gallus gallus (Chicken)), P12003-1 (parent)
chain: MPVFHTRTIESILEPVAQQISHLVIMHEEGEVDGKAIPDLTAPVSAVQAAVSNLVRVGKETVQTTEDQILKRDMPPAFIKVENACTKLVRAAQMLQADPYSVPARDYLIDGSRGILSGTSDLLLTFDEAEVRKIIRVCKGILEYLTVAEVVETMEDLVTYTKNLGPGMTKMAKMIDERQQELTHQEHRVMLVNSMNTVKELLPVLISAMKIFVTTKNTKSQGIEEALKNRNFTVEKMSAEINEIIRVLQLTSWDEDAWASKDTEAMKRALALIDSKMNQAKGWLRDPNAPPGDAGEQAIRQILDEAGKAGELCAGKERREILGTCKTLGQMTDQLADLRARGQGATPMAMQKAQQVSQGLDLLTAKVENAARKLEAMTNSKQAIAKKIDAAQNWLADPNGGSEGEEHIRGIMSEARKVAELCEEPKERDDILRSLGEISALTAKLSDLRRHGKGDSPEARALAKQIATSLQNLQSKTNRAVANTRPVKAAVHLEGKIEQAQRWIDNPTVDDRGVGQAAIRGLVAEGRRLANVMMGPYRQDLLAKCDRVDQLAAQLADLAARGEGESPQARAIAAQLQDSLKDLKARMQEAMTQEVSDVFSDTTTPIKLLAVAATAPSDTPNREEVFEERAANFENHAARLGATAEKAAAVGTANKTTVEGIQATVKSARELTPQVVSAARILLRNPGNQAAYEHFETMKNQWIDNVEKMTGLVDEAIDTKSLLDASEEAIKKDLDKCKVAMANMQPQMLVAGATSIARRANRILLVAKREVENSEDPKFREAVKAASDELSKTISPMVMDAKAVAGNISDPGLQKSFLDSGYRILGAVAKVREAFQPQEPDFPPPPPDLEHLHLTDELAPPKPPLPEGEVPPPRPPPPEEKDEEFPEQKAGEAINQPMMMAARQLHDEARKWSSKGNDIIAAAKRMALLMAEMSRLVRGGSGNKRALIQCAKDIAKASDEVTRLAKEVAKQCTDKRIRTNLLQVCERIPTISTQLKILSTVKATMLGRTNISDEESEQATEMLVHNAQNLMQSVKETVREAEAASIKIRTDAGFTLRWVRKTPWYQ

Variants of: B1
Settings: with arpc2_mouse Arpc2, Q9CVB6

effect of a mutation on the interaction | Variant
disrupting interaction | P878A
